Reference: article PMC6412877, “Novel Site-Specific Fatty Chain-Modified GLP-1 Receptor Agonist with Potent Antidiabetic Effects” (Molecules, 2019)
Ends that are not written are not given here. fatty chain = not defined here

The binders below were run against Glucagon-like peptide-1 receptor extracellular domain (assay: SPR; Biacore 8K, according to the user's manual; who was immobilised and the conditions are not stated).

Binder | Kd [nM]
FFYSSPSAKLETGGPSSGAPPPS [PEP13] | 98
FFYSSPSAYLKTGGPSSGAPPPS [PEP15] | 33
FFYSSPSAYLK(fatty chain)TGGPSSGAPPPS (reading uncertain; also: fatty chain not given here) [PEP19] | 91
KQYSSPTAWLVGGPSSGAPPPS [PEP09] | 253
FFYSSPSAYK(fatty chain)ETGGPSSGAPPPS (reading uncertain; also: fatty chain not given here) [PEP18] | 62
FFYSSPSAYLEKGGPSSGAPPPS [PEP16] | 23
FFYSSPSAYLEK(fatty chain)GGPSSGAPPPS (reading uncertain; also: fatty chain not given here) [PEP20] | 25
FFYSSPSAYKETGGPSSGAPPPS [PEP14] | 53
FFYSSPSAK(fatty chain)LETGGPSSGAPPPS (reading uncertain; also: fatty chain not given here) [PEP17] | 158

Target: Glucagon-like peptide-1 receptor extracellular domain
Experiment: as above
Remark: another data set of the same source

Binder | Kd [nM]
FFYSSPSAYLEKGGPSSGAPPPS [PEP16] | 25

What follows are binders tested against Mouse GLP-1R (mouse) (UniProt O35659) (assay: not given).
Sequence of Mouse GLP-1R (mouse) (O35659 22-463): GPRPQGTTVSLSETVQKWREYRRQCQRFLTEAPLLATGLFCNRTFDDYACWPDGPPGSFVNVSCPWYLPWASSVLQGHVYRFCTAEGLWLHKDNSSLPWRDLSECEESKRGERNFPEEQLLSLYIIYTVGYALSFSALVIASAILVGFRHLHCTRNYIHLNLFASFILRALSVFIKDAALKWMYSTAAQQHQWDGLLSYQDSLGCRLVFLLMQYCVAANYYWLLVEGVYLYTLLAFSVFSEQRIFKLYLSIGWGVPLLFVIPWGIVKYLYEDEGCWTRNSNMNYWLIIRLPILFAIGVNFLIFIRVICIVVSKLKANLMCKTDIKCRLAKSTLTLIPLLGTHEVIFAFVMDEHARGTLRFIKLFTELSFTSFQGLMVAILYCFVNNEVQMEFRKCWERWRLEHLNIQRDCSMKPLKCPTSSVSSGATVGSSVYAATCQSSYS

Binder | EC50 (nM), Mouse GLP-1R activation, in vitro cell assay [nM] | Emax (%), Mouse GLP-1R activation, in vitro cell assay [%]
FFYSSPSAKLETGGPSSGAPPPS [PEP13] | 0.051 | 110
FFYSSPSAYLKTGGPSSGAPPPS [PEP15] | 0.457 | 73
FFYSSPSAYLK(fatty chain)TGGPSSGAPPPS (reading uncertain; also: fatty chain not given here) [PEP19] | 0.212 | 83
FFYSSPSAYK(fatty chain)ETGGPSSGAPPPS (reading uncertain; also: fatty chain not given here) [PEP18] | 0.351 | 78
FFYSSPSAYLEKGGPSSGAPPPS [PEP16] | 0.101 | 93
FFYSSPSAYLEK(fatty chain)GGPSSGAPPPS (reading uncertain; also: fatty chain not given here) [PEP20] | 0.051 | 99
FFYSSPSAYKETGGPSSGAPPPS [PEP14] | 0.034 | 150
FFYSSPSAK(fatty chain)LETGGPSSGAPPPS (reading uncertain; also: fatty chain not given here) [PEP17] | 0.678 | 68

What follows are binders tested against Human GLP-1R (human) (UniProt P43220) (assay: not given).
Sequence of Human GLP-1R (human) (P43220 24-463): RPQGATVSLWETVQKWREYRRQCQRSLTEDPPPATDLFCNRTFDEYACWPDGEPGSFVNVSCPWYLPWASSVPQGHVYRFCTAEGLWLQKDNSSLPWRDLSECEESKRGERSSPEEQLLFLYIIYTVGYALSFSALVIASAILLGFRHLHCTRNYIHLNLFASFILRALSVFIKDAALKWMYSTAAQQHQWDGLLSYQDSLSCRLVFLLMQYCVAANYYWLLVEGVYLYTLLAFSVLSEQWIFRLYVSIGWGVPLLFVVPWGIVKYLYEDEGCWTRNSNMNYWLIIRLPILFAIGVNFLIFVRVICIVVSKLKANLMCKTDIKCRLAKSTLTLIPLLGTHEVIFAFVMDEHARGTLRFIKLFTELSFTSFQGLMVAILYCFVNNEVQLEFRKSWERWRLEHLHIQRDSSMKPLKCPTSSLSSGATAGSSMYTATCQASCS

Binder | EC50 (nM), Human GLP-1R activation, in vitro cell assay [nM] | Emax (%), Human GLP-1R activation, in vitro cell assay [%]
FFYSSPSAKLETGGPSSGAPPPS [PEP13] | 0.064 | 96
FFYSSPSAYLKTGGPSSGAPPPS [PEP15] | 0.451 | 78
FFYSSPSAYLK(fatty chain)TGGPSSGAPPPS (reading uncertain; also: fatty chain not given here) [PEP19] | 0.152 | 89
FFYSSPSAYK(fatty chain)ETGGPSSGAPPPS (reading uncertain; also: fatty chain not given here) [PEP18] | 0.391 | 78
FFYSSPSAYLEKGGPSSGAPPPS [PEP16] | 0.111 | 92
FFYSSPSAYLEK(fatty chain)GGPSSGAPPPS (reading uncertain; also: fatty chain not given here) [PEP20] | 0.062 | 98
FFYSSPSAYKETGGPSSGAPPPS [PEP14] | 0.051 | 105
FFYSSPSAK(fatty chain)LETGGPSSGAPPPS (reading uncertain; also: fatty chain not given here) [PEP17] | 0.412 | 79
